The record followed here is article PMC11342882.

This assay addresses FcRn with a C-terminal 6×His-tag and complexed with beta-2-microglobulin (UniProt P55899). The assay can be described thus: BLI.

FcRn with a C-terminal 6×His-tag and complexed with beta-2-microglobulin, sequence (P55899 24-297, chain 1 of 2): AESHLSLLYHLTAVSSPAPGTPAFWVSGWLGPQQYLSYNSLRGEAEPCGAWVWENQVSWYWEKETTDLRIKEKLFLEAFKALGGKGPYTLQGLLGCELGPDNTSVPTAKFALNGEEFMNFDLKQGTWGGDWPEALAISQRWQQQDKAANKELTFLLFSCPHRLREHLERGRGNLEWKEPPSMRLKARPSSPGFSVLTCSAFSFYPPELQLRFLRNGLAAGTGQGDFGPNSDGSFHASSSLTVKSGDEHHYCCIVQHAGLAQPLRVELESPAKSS
FcRn with a C-terminal 6×His-tag and complexed with beta-2-microglobulin, sequence (P61769 21-119, chain 2 of 2, further chain): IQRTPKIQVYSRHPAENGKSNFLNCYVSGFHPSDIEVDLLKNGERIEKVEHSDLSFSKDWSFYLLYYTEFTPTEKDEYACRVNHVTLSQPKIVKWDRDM

With “sACE2_(2).v2.4-IgG1 (from UniProt Q9BYF1-1 18-732) (Fc fusion)”, the Kd was above 0.1 µM. “sACE2_(2).v2.4-IgG1(YTE) from Expi293F (from UniProt Q9BYF1-1 18-732) (Fc fusion)” came in with a Kd of 0.021 µM.
